Reference: US20250215104A1 (WALDEN BIOSCIENCES, published 2025)
Changes are numbered by the printed parent chain.

B1: suPAR_DB04_E05 (scFv, V domains shown)
VH: QVQLVQSGAEVKKPGASVKVSCKASGFNIKDYYIHWVRQAPGQGLEWVGWIDPHSGGTNYAQKFQGRVTMTRDTSTSTVYMELSSLRSEDTAVYYCARGYDVDWFVYWGQGTLVTVSS
VL: DIQMTQSPSSLSASVGDRVTITCSARSSVSYMYWYQQKPGKAPKLLIYRTSNLASGVPSRFSGSGSGTDFTLTISSLQPEDFATYYCQQYHSYPPTFGGGTKVEIK
notes: scFv clone from phage display
B2: suPAR_DB04_G06 (scFv, V domains shown)
VH: QVQLVQSGAEVKKPGASVKVSCKASGDTFTSYYVHWVRQAPGQGLEWMGWIDHENGNTIYDQKFQGRVTMTRDTSTSTVYMELSSLRSEDTAVYYCARGYDVDWFVYWGQGTLVTVSS
VL: B1 VL with R26S, S27Q
notes: scFv clone from phage display
B3: suPAR_DB04_G12 (scFv, V domains shown)
VH: B2 VH with D27Y, T30S, S31D, V34M, I59S, D61A
VL: B1 VL
notes: scFv clone from phage display
B4: suPAR_DB04_G09 (scFv, V domains shown)
VH: B2 VH with F29S, S31T, V34M
VL: B1 VL with R26K
notes: scFv clone from phage display
B5: suPAR_DB04_G08 (scFv, V domains shown)
VH: B2 VH with D27H, F29L, S31G
VL: B1 VL
notes: scFv clone from phage display
B6: suPAR_DB04_G07 (scFv, V domains shown)
VH: B2 VH with D27F, T28S, S31T, V34M, H53P, D61A
VL: B1 VL
notes: scFv clone from phage display
B7: suPAR_DB04_G05 (scFv, V domains shown)
VH: B2 VH with D27Y, T28N, F29I, S31D, V34I, H53P, N57S
VL: B1 VL with A54Q
notes: scFv clone from phage display
B8: suPAR_DB04_H01 (scFv, V domains shown)
VH: B2 VH with D27Y, T30I, S31G, Y32S
VL: B1 VL with N52S
notes: scFv clone from phage display
B9: suPAR_DB04_G03 (scFv, V domains shown)
VH: B2 VH with D27Y, S31G, V34M
VL: B1 VL with R26S, A54Q
notes: scFv clone from phage display
B10: suPAR_DB04_G10 (scFv, V domains shown)
VH: B2 VH with D27Y, S31G, V34M, Y100N
VL: B1 VL with S24R, R26S
notes: scFv clone from phage display
B11: suPAR_DB04_G04 (scFv, V domains shown)
VH: B2 VH with D27Y, T28S, V34I, N57S, D61A
VL: B1 VL with R26S, S27Q
notes: scFv clone from phage display
B12: suPAR_DB04_G11 (scFv, V domains shown)
VH: B1 VH with N28T, I29F, V48M, H54D
VL: B1 VL with S27Q
notes: scFv clone from phage display
B13: suPAR_DB01_F03 (scFv, V domains shown)
VH: B2 VH with D27Y, V34M
VL: B1 VL with S27Q
notes: Screened as scFv
B14: suPAR_DB01_G04 (scFv, V domains shown)
VH: B1 VH with F27Y, N28T, I29L, K30S, D31G, I34M, V48M, H54N, N59K
VL: B1 VL with S24R, S27Q
notes: Screened as scFv
B15: suPAR_DB02_A05 (scFv, V domains shown)
VH: B2 VH with V34M, H53P, D61A
VL: B1 VL with S27Q
notes: Screened as scFv
B16: suPAR_DB02_A03 (scFv, V domains shown)
VH: B2 VH with D27Y, S31D, V34I, H53P, D61A
VL: B1 VL
notes: Screened as scFv
B17: suPAR_DB01_F02 (scFv, V domains shown)
VH: B2 VH with D27Y, S31N
VL: B1 VL
notes: Screened as scFv
B18: suPAR_DB01_H01 (scFv, V domains shown)
VH: B2 VH with V34M, H53P
VL: B1 VL
notes: Screened as scFv
B19: suPAR_DB01_G02 (scFv, V domains shown)
VH: B2 VH with D27Y, T28S, S31D, V34M, D61A
VL: B1 VL
notes: Screened as scFv
B20: suPAR_DB01_F11 (scFv, V domains shown)
VH: B2 VH with D27Y, V34M, N55G, I59S, D61A
VL: B1 VL with S24R, R26S
notes: Screened as scFv
B21: suPAR_DB01_G08 (scFv, V domains shown)
VH: B2 VH with D27Y, T28S, S31N, V34M, I59S, D61A
VL: B1 VL with S27Q, N52S
notes: Screened as scFv
B22: suPAR_DB01_F05 (scFv, V domains shown)
VH: B2 VH with D27Y, T30S, S31N, V34M, N55G, N57S
VL: B1 VL
notes: Screened as scFv
B23: suPAR_DB01_F10 (scFv, V domains shown)
VH: B2 VH with D27Y, V34M, N57S, I59S
VL: B1 VL
notes: Screened as scFv
B24: suPAR_DB01_G10 (scFv, V domains shown)
VH: B2 VH with D27Y, S31N, V34M, N55G, I59S, D61A
VL: B1 VL
notes: Screened as scFv
B25: suPAR_DB01_H10 (scFv, V domains shown)
VH: B2 VH with D27Y, S31N, V34M, N57S, D61A
VL: B1 VL with S27Q
notes: Screened as scFv
B26: suPAR_DB01_G07 (scFv, V domains shown)
VH: B2 VH with D27N, V34M, H53P
VL: B1 VL
notes: Screened as scFv
B27: suPAR_DB01_F08 (scFv, V domains shown)
VH: B2 VH with D27Y, S31G, V34M, N57S, D61A
VL: B1 VL with S24R, S27Q
notes: Screened as scFv
B28: suPAR_DB01_H07 (scFv, V domains shown)
VH: B2 VH with T30S, S31N, V34M, N57S, D61A
VL: B1 VL
notes: Screened as scFv
B29: suPAR_DB01_H06 (scFv, V domains shown)
VH: B2 VH with D27F, T28N, F29I, T30K, S31D, V34M, H53P
VL: B1 VL with S27Q, V29I
notes: Screened as scFv
B30: suPAR_DB01_G12 (scFv, V domains shown)
VH: B2 VH with T30S, S31N, V34M
VL: B1 VL with V29I
notes: Screened as scFv
B31: suPAR_DB01_H05 (scFv, V domains shown)
VH: B2 VH with D27Y, S31G, Y32N
VL: B1 VL
notes: Screened as scFv
B32: suPAR_DB01_G01 (scFv, V domains shown)
VH: B2 VH with T30S, V34M
VL: B1 VL
notes: Screened as scFv
B33: suPAR_DB01_H04 (scFv, V domains shown)
VH: B1 VH with F27Y, N28T, I29F, K30T, D31N, I34M, V48M, H54N
VL: B1 VL
notes: Screened as scFv
B34: suPAR_DB02_A04 (scFv, V domains shown)
VH: B2 VH with D27Y, S31G
VL: B1 VL with S24R, R26S
notes: Screened as scFv
B35: suPAR_DB01_H03 (scFv, V domains shown)
VH: B2 VH with F29I, S31N, V34M, H53T, E54N, N55S, N57G, I59Q, D61A
VL: B1 VL
notes: Screened as scFv
B36: suPAR_DB01_F04 (scFv, V domains shown)
VH: B2 VH with D27Y, S31D, V34M, E54S, D61A
VL: B1 VL
notes: Screened as scFv
B37: suPAR_DB01_F06 (scFv, V domains shown)
VH: B2 VH with D27Y, V34M, D61A
VL: B1 VL with S27Q, V29I, A54Q
notes: Screened as scFv
B38: suPAR_DB01_F12 (scFv, V domains shown)
VH: B1 VH with V48M, H54E, S55N, G57S, N59I, A61D
VL: B1 VL with S24R, S27Q
notes: Screened as scFv
B39: suPAR_DB01_G09 (scFv, V domains shown)
VH: B2 VH with D27H, F29L, T30N, V34M, H53P, D61A
VL: B1 VL with S27Q
notes: Screened as scFv

biological target: T1, cynomolgus soluble urokinase plasminogen activator receptor (cynomolgus suPAR) (cynomolgus, UniProt Q9GK78 23-303, limits assumed); assay: off-rate screen of scFv clones (kdis), Octet BLI
T1 construct: also called cynomolgus uPAR; cynoPLAUR-His
Target sequence in this assay (Q9GK78 23-303 limits assumed): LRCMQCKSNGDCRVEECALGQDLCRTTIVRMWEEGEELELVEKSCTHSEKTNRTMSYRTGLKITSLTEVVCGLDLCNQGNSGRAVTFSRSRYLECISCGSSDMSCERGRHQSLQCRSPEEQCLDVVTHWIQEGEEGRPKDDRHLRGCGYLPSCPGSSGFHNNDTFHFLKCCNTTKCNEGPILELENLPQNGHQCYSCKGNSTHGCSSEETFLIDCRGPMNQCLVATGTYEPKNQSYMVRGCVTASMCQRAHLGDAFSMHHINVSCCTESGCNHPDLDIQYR

Binder | koff [s⁻¹]
B1 | 3.92e-07
B2 | 0.000208
B3 | 8.1e-05
B4 | 0.000647
B5 | 0.000203
B6 | 5.96e-07
B7 | 8.25e-05
B8 | 0.00104
B9 | 0.000747
B10 | 0.000462
B11 | 0.000342
B12 | 0.00021

biological target: T2, human soluble urokinase plasminogen activator receptor (hsuPAR) (human, UniProt Q03405 23-303, limits assumed); assay: off-rate screen of scFv clones (kdis), Octet BLI
T2 construct: also called human suPAR; rhuPAR-His
T2 sequence (Q03405 23-303 limits assumed): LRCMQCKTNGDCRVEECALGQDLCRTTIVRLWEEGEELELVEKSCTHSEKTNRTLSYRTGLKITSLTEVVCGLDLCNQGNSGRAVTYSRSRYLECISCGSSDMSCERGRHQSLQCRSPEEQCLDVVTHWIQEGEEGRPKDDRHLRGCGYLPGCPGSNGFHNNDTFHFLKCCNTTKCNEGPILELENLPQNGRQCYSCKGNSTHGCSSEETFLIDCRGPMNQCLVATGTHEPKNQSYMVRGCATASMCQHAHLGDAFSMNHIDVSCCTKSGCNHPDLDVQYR

Binder | koff [s⁻¹]
B1 | 0.00359
B2 | 0.0027
B3 | 0.00528
B4 | 0.00359
B5 | 0.00317
B6 | 0.00424
B7 | 0.00364
B8 | 0.00127
B9 | 0.00119
B10 | 0.00322
B11 | 0.000751
B12 | 0.00327

biological target: T3, cynomolgus soluble urokinase plasminogen activator receptor (cynomolgus suPAR) (cynomolgus, UniProt Q9GK78 23-303, limits assumed); assay: BLI (Octet) off-rate screen of scFv
T3 construct: also called cynomolgus uPAR; cynoPLAUR-His
Target sequence in this assay (Q9GK78 23-303 limits assumed): as the sequence (Q9GK78 23-303 limits assumed) above

Binder | koff [s⁻¹]
B13 | 6.17e-07
B14 | 7.99e-05
B15 | 0.000151
B16 | 0.000341
B17 | 9.84e-05
B18 | 0.000122
B19 | 0.000149
B20 | 9.02e-05
B21 | 0.000104
B22 | 4.95e-07
B23 | 3.88e-05
B24 | 0.000197
B25 | 0.000374
B26 | 1.73e-05
B27 | 0.000207
B28 | 0.000219
B29 | 0.000129
B30 | 0.000247
B31 | 0.000432
B32 | 0.000152
B33 | 0.000225
B34 | 0.000521
B35 | 0.000677
B36 | 4.59e-05
B37 | 4.98e-05
B38 | 0.000192
B39 | 0.000347

biological target: T4, human soluble urokinase plasminogen activator receptor (hsuPAR) (human, UniProt Q03405 23-303, limits assumed); assay: BLI (Octet) off-rate screen of scFv
T4 construct: also called human suPAR; rhuPAR-His
T4 sequence (Q03405 23-303 limits assumed): as the sequence (Q03405 23-303 limits assumed) above

Binder | koff [s⁻¹]
B13 | 0.00251
B14 | 0.00364
B15 | 0.00521
B16 | 0.00198
B17 | 0.004
B18 | 0.00454
B19 | 0.00245
B20 | 0.00293
B21 | 0.00309
B22 | 0.00175
B23 | 0.00183
B24 | 0.00343
B25 | 0.000603
B26 | 0.00407
B27 | 0.000505
B28 | 0.00138
B29 | 0.0052
B30 | 0.00466
B31 | 0.00152
B32 | 0.00429
B33 | 0.00242
B34 | 0.00236
B35 | 0.001
B36 | 0.00309
B37 | 0.00267
B38 | 0.00282
B39 | 0.00433
